The source of these data is patent US8088892B2, “Inhibitors of proteins from the Rho-GEF family” (Centre National de la Recherche Scientifique (C.N.R.S.), priority 2002, dated 2012).

One assay addresses T1, TrioGEFD1 (Homo sapiens, UniProt O75962).
T1 construct: TrioGEFD1 (a.a. 1232-1629, 0.1 μM); made in house
Description: In vitro GEF assay on RhoG. Type of assay: biochemical. More on the design: key to in vitro GEF assay (inhibition): +++^2 and +^2 represent respectively a full and a partial (see FIG. 3) inhibitory effect; +++^2 and +^2 represent respectively a full and a partial (see FIG. 3) inhibitory effect; −−^2 represents a lack of inhibitory effect. As to conditions: for Effect on TrioGEFD1 exchange activity on RhoG: 20-fold molar excess, TrioGEFD1 0.1 μM, RhoG 0.3 μM. As for the experimental part:
To test the specificity of TRIAPα inhibition in vitro, exchange experiments were performed either on RhoA with different RhoA-specific GEFs: Trio GEFD2 (0.4 μM), Kalirin GEFD2 (KalGEFD2, 1.7 μM), p63RhoGEF (Souchet et al., 2002) (0.4 μM) and Lbc (amino acids 172-598; Zheng et al., 1995) (0.4 μM), or on RhoG, with the RhoG-specific GEF domain of Trio (TrioGEFD1, 0.1 μM). Exchange assays were performed with the recombinant GEFs as described in FIG. 2A. Different concentrations of RhoGEFs were used to yield a similar nucleotide exchange efficiency. For each exchange factor, three independent experiments were done in absence (black bar) or in the presence (grey bar) of a 20-fold molar excess of TRIAPα.
(§1) An in vitro guanine nucleotide exchange (GEF) assay was used to test whether the TrioGEFD2-binding aptamers could inhibit the catalytic activity of TrioGEFD2 towards RhoA. For this purpose, the aptamers TRIAPα, TRIAPβ and TRIAPγ (including the Trx gene) were excised from pEG202 as EcoRI/NotI fragments and cloned into pGEX4T1 EcoRI/NotI. The aptamers were then expressed and purified from bacteria as GST fusion proteins, using standard procedures (Smith and Johnson, 1988). GTPase-GST fusion proteins were prepared, loaded with [^3H]GDP and the guanine nucleotide release assays were performed as described (Debant et al., 1996), using recombinant GST-TrioGEFD2 (a.a. 1848-2298), TrioDH2 (a.a. 1848-2096). For each point, 0.3 μM GTPase was mixed with or without 0.4 μM GEF in presence of non-labeled GTP, and the reaction mix was filtered after 0 min and 15 mm reaction at 25° C. The catalytic activity of TrioGEFD2 was thus measured by the decrease of the GTPase-associated radioactivity. The results are expressed as the ratio “exchange after 15 min over exchange after 0 min” (% bound [^3H]GDP-RhoA). To measure the effect of the aptamers on the exchange activity, a 20-fold molar excess of GST-TRIAPs was pre-incubated with GEFD2 (or GEFD1) for 30 min on ice before the exchange assay was carried out. For each experiment, data were obtained in triplicate. […]

For a further assay, the target named is T2, Dbl (Homo sapiens, UniProt P10911).
T2 construct: made in house
T2 sequence (P10911 495-826): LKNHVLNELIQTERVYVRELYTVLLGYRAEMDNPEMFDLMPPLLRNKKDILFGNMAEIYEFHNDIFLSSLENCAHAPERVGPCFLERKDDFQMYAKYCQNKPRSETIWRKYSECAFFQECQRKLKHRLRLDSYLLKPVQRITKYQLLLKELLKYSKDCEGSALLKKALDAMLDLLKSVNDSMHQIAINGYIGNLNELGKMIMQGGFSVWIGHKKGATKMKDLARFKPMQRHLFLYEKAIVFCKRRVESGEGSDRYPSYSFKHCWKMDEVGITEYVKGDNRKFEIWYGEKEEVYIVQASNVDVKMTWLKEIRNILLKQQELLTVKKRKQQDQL
Description: In vitro GEF assay on RhoA. It counts as biochemical. More on the design: key to in vitro GEF assay (inhibition): +++^2 and +^2 represent respectively a full and a partial (see FIG. 3) inhibitory effect; +++^2 and +^2 represent respectively a full and a partial (see FIG. 3) inhibitory effect; −−^2 represents a lack of inhibitory effect.
Description: as §1

B1: TRIAPα: aptamer of 154 amino acids: variable region of 42 amino acids inserted into the thioredoxin protein; tested as GST fusion (protein)
chain: MSDKIIHLTDDSFDTDVLKADGAILVDFWAEWCGPAREGADGAICGYNLATLVMLGPSERVFCPLCEPCSSDIYELMGPCKMIAPILDEIADEYQGKLTVAKLNIDQNPGTAPKYGIRGIPTLLLFKNGEVASATKVGALSKGQLKEFLDANLA
Consider B1, for which the “Effect on TrioGEFD1 exchange activity on RhoG” value with TrioGEFD1 is reported as “has no effect”; with TrioGEFD1 (listed as GST-TRIAPα), “did not block”. Also, the “in vitro GEF assay (inhibition)” value with TrioGEFD1 (RhoGEF TrioDH1PH1) and with Dbl (RhoGEF Dbl) was “−−^2” in each case. Moreover, the “Effect on Dbl exchange activity” value with Dbl (data not shown) was “not affected”.
